Reference: the nanobody polyreactivity screen of Harvey et al. (2022)

Test: yeast display, Sf9 membrane polyspecificity reagent, FACS + sequencing; frameworks hold sequencing errors
Outline: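 Galactose induction of a Saccharomyces cerevisiae BJ5465 synthetic nanobody display library ran 36–48 hours. The cells were then stained for 1 hour at 4 °C with 10% biotinylated, detergent-solubilized Sf9 membrane reagent, pulled down on streptavidin microbeads and FACS-sorted into low and high (top ~1%) gates on expression and reagent-binding fluorescence. Labels for polyreactivity follow the gate of origin.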

Question: For “QVQLEESGGGLVQAGGSLRLSCAASGFTFSLYAMGWYRQAPGKERELVAAISTSGGSTYYADSVKGRFTISRDNAKNTVYLQMNSLKPEDTAVYYCAATTVYSRAYYYVTYWYGYWGQGTQVTVSS”, which “polyreactivity (PSR sort gate)” value is on record?
Answer: The value was “low polyreactivity”.

Question: For “HVQLVESGGGFVQAAGSLRLSCAASGSIFAGYAMGWYRQAPGKERELVAAINSSGGSTYYADSVKGRFTISRDNSKNTVYLQMKSLKPEDTAVYDCNRVYKRYYIGGYDYWGQGTQVTVSS”, which “polyreactivity (PSR sort gate)” value is on record?
Answer: The value was “high polyreactivity”.

Question: Which “polyreactivity (PSR sort gate)” value does the source give for “QVQLVESGGGLVQAGGSHRLSCAASGFTFYIYAMGWYRQAPGKERELVAAINIGGGGTYYADSVKGRFTISRDNAKNTVYLLMHSLKPEDTAVYDCAAVYCYDYYCTEYDYWGQGTQVNVSS” here?
Answer: The value was “low polyreactivity”.

Question: With “QVQLVESGGGLVQAGGSLRLSCAASGFIFRFYAMGWYRQAPGKERELVATISKRGGTTYYADSVKGRFTISRDNAKYTVYLQMNSLKPEDTAVYFCAVRLYLEMDYWGQGTQVTVSS” as the sequence, how does the “polyreactivity (PSR sort gate)” value read?
Answer: The value was “high polyreactivity”.

Question: Which “polyreactivity (PSR sort gate)” value does the source give for “QVQLVESGGGLVQAGGSLRLSCAASGFTFWRYAMGWYRQAPGKERELVAAITWSGGRTYYADSVKGRFTISRDNAKNTVYLQMNSLKPEDTAVYYCNVDAYGYRPYRYYYWGQGTQVTVSS” here?
Answer: Its value is “high polyreactivity”.

Question: For “QVQLVESGGGLVQAGGSLRLSCAASGRTFSGNAMGWYRQAPGKERELVATITRRGGSTYYADSVKGRFTISRDNAKNTVYLQMNSLKPEDNAVYYCAARRVVNGGQGYESWGQGTQVTVSS”, which “polyreactivity (PSR sort gate)” value is on record?
Answer: The value was “high polyreactivity”.

Question: For “QVQLVESGGGLLQAGGSLRLSCAASGRTYVWNAMGWSRQAPGKERELVAGISWRGGSTYYADSVKGRFRISRDNAKNTVYLQKNSLKPEDTAVYYFAASARFVTYKMYYWGQGTQVTVSS”, which “polyreactivity (PSR sort gate)” value is on record?
Answer: Its value is “high polyreactivity”.

Question: With “QVQLVESGGGLVQAGGSLRLSCAASGIIFWAYAMGWYRQAPGKERELVAVISRGGSTNYADSVKGRFTISRDNAKNTVYLQMNSLKPEDTAVYYCAARYGWGQGTQVTVSS” as the sequence, how does the “polyreactivity (PSR sort gate)” value read?
Answer: Its value is “high polyreactivity”.

Question: For “QDQLVESGAGLVQAAGSLRLSCAASGSTFDTYALGWYRQAPGKERELVAAISVSGTSTSYADSVKGRFTISRDNAKNTVYLQMNSLKPEDTAVYYCNATDFSRNPGYARPEYDYWGQGTHVTVSS”, which “polyreactivity (PSR sort gate)” value is on record?
Answer: The value was “low polyreactivity”.

Question: Which “polyreactivity (PSR sort gate)” value does the source give for “QVQLVESGGGLVQAGGSLRLSCAASGSIFAYYAMGMYRQEPGKERELVAVIRSGGSTYYADSVKGRFTISRDNAKNTVYLQMNSLKPEDTAVYYCAARSYRPTRGDYWGQGTQVTVSS” here?
Answer: The value was “high polyreactivity”.

Question: For “QVQLVESGGGLVQAGGSLRLSCAASGSTFPLYTMGWYRQAPGKEREFVAAISRSGGSTYYADSVKGRFTISRDNAKNTVFLQINSLKPEDTAVYYCDTRSYKSRTYDYWGQGTQVSVSS”, which “polyreactivity (PSR sort gate)” value is on record?
Answer: Its value is “high polyreactivity”.

Question: Which “polyreactivity (PSR sort gate)” value does the source give for “QVQLVESGGGLVQAGGSLRLSCAASGSIFYINAMGWYRQAPGKERELVAAITSDGSTYYADSVKGRFTISRDNAKNTVYLQMNSLKPEDTAVYYCAADLTSDQYLYYWYWFYSWGQGTQVTVSS” here?
Answer: The value was “low polyreactivity”.

Question: With “QVQLVESGGGLVQAGGSLRLSCAASGRTLRSYAMGWYRQAPGKERELVAAITRTGGDTYYADSVKGRFTISRDNANNTLYLQMNSLKPEDTAVYYCAAQRYRGYDYWGQGTQVTVSS” as the sequence, how does the “polyreactivity (PSR sort gate)” value read?
Answer: The value was “high polyreactivity”.

Question: With “QVQLVESGGGLVHAGGSLRLSCAASGSTFGYYAIGWNRQAPGKERELVAVITGSGGSTYYADSVKGRFTISRDYAKNTVYLQMNSLKPEDTAVYYCAARRWNPTYEYWGQGTQVTVSS” as the sequence, how does the “polyreactivity (PSR sort gate)” value read?
Answer: Its value is “high polyreactivity”.

Question: Which “polyreactivity (PSR sort gate)” value does the source give for “QVQLVESGGGLVQAGRSLRLSCAASGRSFKYYPMGWYRQAPGKERELVARISRSSGNTYYADSVKGRFTISRDTAKNTVYLQMNSLKAEDTAVYFCATVPHYNGFNYWGQGTQVTVSS” here?
Answer: Its value is “high polyreactivity”.

Question: For “QVQLVESGGGLVQAGGSLRLSCAASGSILGYYVMGWYRQAPGKERELVAAISWSSGSTYYADSVKGRFTISRDNAKNTVYLQMNSLKPEDTAVYYCNASNVYFWFVTLEFDYWGQGTQVTVSS”, which “polyreactivity (PSR sort gate)” value is on record?
Answer: Its value is “low polyreactivity”.

Question: For “QVQLLESGGGLVQAGGILRLSCAASGRTLHYSAMGWYRQAPGIERELVAAISARGGRTYYADSVKGRFTISRDNAKNTVYLLMQTLKPEDTAVYYCAAAGYITRYDRYDYWGQGTHVTVSS”, which “polyreactivity (PSR sort gate)” value is on record?
Answer: Its value is “high polyreactivity”.

Question: Which “polyreactivity (PSR sort gate)” value does the source give for “QVQLVESGGGLVQAGGSLRLSCSSSGSIFVKNAMGWYRQAPGKERELVATISTGGRTYYADSVKGRFTISRDNAKNTVYLQMNSLIPEDTAVYYCATDFYPRYLLRTYRPYYYCGQGTQVTVSS” here?
Answer: Its value is “low polyreactivity”.

Question: For “QDQLVESGGGLVQAGCSLRISCAASGRTFGVYAMGWYRQAPGKERELVAAINRSGTRTYYADSVKGRFTISRDHAKNTVYLPMNSLKPEDTAVYYCAASWYPGSRNYDYWGQGTQVTVSS”, which “polyreactivity (PSR sort gate)” value is on record?
Answer: The value was “high polyreactivity”.

Question: Which “polyreactivity (PSR sort gate)” value does the source give for “QVQHVESGGGLVQEGGSLRLSCGASGRTFSYYAMGCYRQPPGKEREMVAAIRATGTTTYYAVSVKGRFTISRDNAKITFYFQMNSLKQDDTAVYYCAARGSRYRSSGYEEWGQGTQVTVSS” here?
Answer: Its value is “high polyreactivity”.

Question: For “QVQLVESGGGLVQAGGSLRLSCAASGRTFLPYAMGWYRQAPGKERELVAAIDSSGGSTYYADSVKGRFTISRDNAKNTVYLQMNSLKPEDTAVYYCAADLYSSYYLYDSWGQGTQVTVSS”, which “polyreactivity (PSR sort gate)” value is on record?
Answer: Its value is “low polyreactivity”.

Question: Which “polyreactivity (PSR sort gate)” value does the source give for “QVQLVESGGGLVQAGGSLRLSCAASGITFWDYAMGWYRQAPGKERELVAGITSRGGSTYYADSVKGRFTISRDNAKNTVYLQMNSLKPADTGVNSCNAYRLHSRRYYYWGQGTQVTVSS” here?
Answer: Its value is “low polyreactivity”.

Question: For “QVQLGESGGGLVQAGGSLRLSCAASGRIFLRNVMGWYRPAPGKERELVAAISLSGASTYYADSVKGRFTISRDNAKNTVYLQMNSLKPEDTAVYYCAADITILSDYWGQGTQVTVSS”, which “polyreactivity (PSR sort gate)” value is on record?
Answer: The value was “low polyreactivity”.

Question: For “QLQLVESGGGLVKAGGSLRLSCAASGRTLPVYAMGWYRQAPGKERELVAAIRWRGGRTYYADSVKGRFTISRDNAKNTVYLQMNSLKPEDTAVYYCAATTNTDRDYWGQGTQVTVSS”, which “polyreactivity (PSR sort gate)” value is on record?
Answer: The value was “high polyreactivity”.

Question: With “QVQLVESGGGLVQAGGSLRLSCAASGSIFPGYAMGWYRQAPGKERELVATISTRGSTYYADSVKGRFTISRDNAKNTVYLQMNSLKPEDTAVYYCNTDFPTAQYDYWGQGTQVTVSS” as the sequence, how does the “polyreactivity (PSR sort gate)” value read?
Answer: The value was “low polyreactivity”.

Question: For “QVQLVESGGGLVQAGGSLRLSCASGLTFYRYAMGWYRQAPGKERELVAAINVRGGSTYYADSVKGRFTISRDNAKNTVYLQMNSLKPEETAVYYCAAYYPGFSYRYDYWGQGTQVTVSS”, which “polyreactivity (PSR sort gate)” value is on record?
Answer: Its value is “low polyreactivity”.

Question: For “QVQLVESGGGLVQAGGSLRLSCAASGRTFNRNAMGWYRQAPGKERELVAAISRGGGGTFYADSVKGRFTISRDNAKNTVYLQMNSLKPEDTAVYYCAAELYYWTYVRFDYWGQGTQVTVSS”, which “polyreactivity (PSR sort gate)” value is on record?
Answer: Its value is “low polyreactivity”.

Question: With “QVQLVESGGGLLQAGGSLRLSCAASGSILYWNAMGWYRQAPGKERELVAAITGSGGSTSYADSVKGRFTISRDNAKNTVYLQMNSLKPEDTAVYYCAALQFPTPLLLYDSWGQGTQVTVSS” as the sequence, how does the “polyreactivity (PSR sort gate)” value read?
Answer: Its value is “low polyreactivity”.

Question: Which “polyreactivity (PSR sort gate)” value does the source give for “QVQLVESGGGLVQAGGSLRLSCAASGRTFSRYAMGWYRQAPGKERELVATINSRAGITNYADSVKGRFTISRDNAKNTVYLQMNSLKPEDTAVYYCAAKGVIISYDTLRYDYWGQATQVTVSS” here?
Answer: Its value is “high polyreactivity”.

Question: For “QVQHVESGGGLVQAGGSLRLSCAASGSIIYRNAMGWSRQPPGKERELVAAISWSAARTYYADSVKGRFTISRDNAKNTVYLQMNSQKPEDTAVYYCNKAARFTSHQGYDSWGQGTQVTVSS”, which “polyreactivity (PSR sort gate)” value is on record?
Answer: The value was “high polyreactivity”.

Question: Which “polyreactivity (PSR sort gate)” value does the source give for “QVQLVESGGGLVQAGGSLRLSCAASGSTFAGNAMGWYRQAPGKERELVAAIDSSTGSTYYADSVKGRFTISRDNAKNTVYLQMNSLKPEDTAVYYCNNTSFLVKLDYWGQGTQVTVSS” here?
Answer: Its value is “low polyreactivity”.

Question: Which “polyreactivity (PSR sort gate)” value does the source give for “QVQLVESGGGLVQAGGSLRLSCAASGRIFRRKTMGWYRQAPGKERELVAAITSRGGSTYYADSVKGRFTISRDNAKNTFYLKMNSLIPEDTGFYYCNTRVVPEIYDYWGQGSQVTVSS” here?
Answer: Its value is “high polyreactivity”.
